This note sets out measurements from US11912755B2, “Endostatin fragments and variants for use in treating fibrosis” (iBio, Inc., priority 2015, dated 2024).

The subject of data set [1] is TGF-β-induced dermal fibrosis in mouse skin. Description: In vivo TGF-β-induced dermal fibrosis in mouse skin. Particulars: 10 μg/ml intradermal with TGF-β 10 ng/ml; one week. The method, then: In Vivo Mouse Experiments. CB57BL6/J male mice were purchased from The Jackson Laboratory (Bar Harbor, ME). Human rE (10 μg/ml) or Endostatin peptides (10 μg/ml) in combination with TGF-β (10 ng/ml), or TGF-β alone were injected intradermally on the back of mice in a total volume of 100 μl 1×PBS. Mice were injected in two different skin sites and sacrificed one week post-injection. Skin surrounding the injection site was harvested and fixed in 10% formalin prior to embedding in paraffin.
Measurement of Skin Dermal Thickness. Six μm sections of paraffin-embedded human and mouse skin tissues were stained with hematoxylin and eosin (H&E). In some experiments, sections were stained with Masson trichrome which identifies collagens. Images were taken on a Nikon Eclipse 800 microscope. The thickness of the dermis was measured in 6 random fields of each section using the image/J® software. Data are shown in arbitrary units.
E4, a peptide representing the carboxy terminus of human endostatin, can attenuate fibrosis triggered by multiple fibrogenic factors. The anti-fibrotic effects of E4 can be detected whether administered concomitantly with or following the fibrogenic trigger. The efficacy of E4 was confirmed in […] pre-clinical models of fibrosis: a) bleomycin-induced dermal fibrosis in vivo in mouse skin, b) TGF-β induced dermal fibrosis in mouse skin, and c) bleomycin-induced pulmonary fibrosis. E4 peptide or a control peptide (E1; representing the amino terminal region of endostatin) were administered at the same time as TGF-β or bleomycin or 3-4 days following TGF-β or bleomycin. Mice were sacrificed one and two weeks after TGF-β-initiation of dermal fibrosis, and two and three weeks after bleomycin-induced pulmonary fibrosis. Two different modes of administration of the E4 peptide were also tested. It was confirmed that intraperitoneal and intratracheal administration was effective. The amount of E4 that was administered was 10 μg/ml in a total volume of 100 μl for skin and IP injections and 50 μl for IT administration.
For these studies, fibrosis was assessed by measurement of dermal thickness on H&E skin sections (skin), assessment of collagen levels by Masson Trichrome staining (skin and lung), and measurement of collagen levels by Sircol assay (lung). Furthermore, to confirm the mechanism by which E4 exerts its anti-fibrotic effects, the production of extra-cellular matrix (ECM) components, the levels of enzymes that promote matrix stabilization and thus accumulation and levels of those that degrade ECM components, and levels of transcription factors downstream of the pro-fibrotic triggers were evaluated. Results were assessed using the unpaired t test and the 3-way ANOVA (for the ID1 data).

The test system of data set [2] is human primary lung fibroblasts. Description: Western blot of FN, Col1α1 and α-SMA in primary lung fibroblasts. Type of data set: cell-based. Particulars: normal human lung fibroblasts; TGF-β 24 h, then 5 μg/ml for 48 h. As to the method: Primary Fibroblast Culture. Human primary lung and skin fibroblasts were cultured. The explanted lungs of normal organ donors, patients with SSc or IPF, and clinically involved skin of SSc patients, a morphea patient and healthy donors were used for primary fibroblast culture. Approximately 2-cm pieces of peripheral lung and skin were minced and fibroblasts were cultured in Dulbecco's modified Eagle's medium (DMEM; Mediatech, Herndon, Va.) supplemented with 10% FBS, penicillin, streptomycin, and anti-mycotic agent, as previously described (Feghali et al., Arthritis Rheum 1999; 42:1451-7). All the cells were used between passages 3-6.
Western Blot Analysis. Cellular lysates were obtained from cultured fibroblasts as previously described (Pilewski et al., Am J Pathol 2005; 166:399-407). Briefly, 2.0×10^5 primary fibroblasts were cultured in 35-mm wells in 0.5% FBS-containing medium supplemented with 10 ng/ml of human recombinant TGF-β or PBS as vehicle control for 24 h, […] In some experiments, endostatin peptides were used without TGF-β stimulation. Cellular lysates were analyzed by Western blot. Signals were detected following incubation with horseradish peroxidase-conjugated secondary antibody and chemiluminescence (Perkin Elmer Life Sciences, Inc., Boston, Mass.). The intensity of individual bands with expected molecular sizes was semi-quantitatively analyzed using the image/J® software available at on the Internet (/rsb.info.nih.gov/ij/index.html), and normalized to individual GAPDH intensity.
On the technique in general: Immunoblotting shows a protein as a band on a membrane.

Data set [3] in a line: Solubility of Ig Fc fusions to E3 in plant lysates. It counts as physicochemical. The conditions noted are these: plant lysate, non-denaturing (normal) grind buffer. The source says: For IgG Fc expression, clarified plant lysates were run on a Western blot (Genway chicken E3 antibody). Fusions included E3 (C67A) linked to either the N-terminus of the hinge+Fc domains of IgG2, IgG3, or IgG4, or to the C-terminus of the hinge +Fc domain of IgG1. […] The E3-IgG1 fusion expressed well. The non-reducing samples all appeared to form large structures, although perhaps not as large as the END-55 (iBioCFB03) BMW multimers (FIG. 24).
For IgA/M expression, clarified plant lysates were ground in either denaturing (total) or non-denaturing buffer (soluble) and run on a Western blot (Genway chicken E3 antibody). Fusions contained E3 (C67A) linked to the N-terminus of the hinge+Fc domains of IgA1, IgA2, or IgM. The IgA1 and IgA2 fusions were insoluble in normal grind buffer. The IgM fusion had very low expression. J-chain co-expression had no obvious effect.

Data set [4] has as its system bleomycin-induced pulmonary fibrosis. Description: Bleomycin mouse model of pulmonary fibrosis, plant-made E3 variants oral or IV. Type of data set: in vivo. The conditions noted are these: oral treatment. The source says: Peptides were expressed in plants using the IBIOLAUNCH™ gene expression platform. C57BL/6 mice were given bleomycin intratracheally in conjunction with END-55 (also referred to herein as E3-Fc (C67A) and CFB03) intravenous (IV) administration, or followed by IV administration of END-55 eight days after bleomycin. The mice were sacrificed at day 12 and lung samples were taken for both hematoxylin and eosin (H&E) staining and hydroxyproline assay.
Pulmonary fibrosis was induced in mice using bleomycin. Animals were treated orally with E3 variants or phosphate buffered saline (PBS). Lung histology was examined, showing that orally delivered E3 variants (E3-6His-KDEL (SEQ ID NO:19) and Expanded E3-6His-KDEL(SEQ ID NO:19)) prevented bleomycin-induced pulmonary fibrosis.
For the experiments shown in FIGS. 21 and 22, pulmonary fibrosis was again induced in mice using bleomycin. […] Hydroxyproline content was measured in the lung.
To evaluate tissue fibrosis/collagen deposition, a hydroxyproline quantification assay was performed. […] Aliquots were transferred to 96-well plates, and absorbance was measured at 570 nm. Collagen content was calculated by comparison with a standard curve generated with cis-4 hydroxy-L-proline (Sigma-Aldrich), using the conversion factor of 1 μg hydroxyproline corresponding to 6.94 μg. […]

“E1: synthetic peptide, amino acids 1-45 of SEQ ID NO: 2 (human endostatin) (HSHRDFQPVLHLVALNSPLSGGMRGIRGADFQCFQQARAVGLAGT; listed as Homo sapiens)”: in data set [1], the “TGF-β-induced dermal fibrosis (dermal thickness)” value is “did not alter”. For the same molecule, the “FN and Col1α1 levels” value in data set [2] is “no effect”.
Consider “IgG1_Fc-E3_C67A: SEQ ID NO: 29, C-terminal fusion of E3 C67A to IgG1 Fc”, for which the solubility result in data set [3] is on record as “soluble”.
As to “E2: synthetic peptide, amino acids 71-115 of SEQ ID NO: 2 (IVNLKDELLFPSWEALFSGSEGPLKPGARIFSFNGKDVLTHPTWP; listed as Homo sapiens)”, the “TGF-β-induced dermal fibrosis (dermal thickness)” value in data set [1] is listed as “significantly reduced”.

B1: E3-6His-KDEL: SEQ ID NO:15; secretory leader peptide, E3, tagged with 6X His and KDEL sequence; plant-made (protein)
chain: MGKMASLFATFLVVLVSLSLASESSASYCETWRTEAPSATGQASSLLGGRLLGQSAASCHHAYIVLCIENSFMTHHHHHHKDEL
modifications: amino acid sequence including a secretory sequence, a portion of human endostatin, and a peptide tag
notes: plant-made
For the molecule B1, in data set [4], the “bleomycin-induced pulmonary fibrosis, lung histology” value was “prevented”.

B2: Expanded E3-6His-KDEL: SEQ ID NO:17; E3 extended by 17 amino acids from Collagen XVIII, S→Y, C67A, ASK, 6X His KDEL (protein)
chain: MGKMASLFATFLVVLVSLSLASESSAQKSVWHGSDPNGRRLTESYCETWRTEAPSATGQAYSLLGGRLLGQSAASCHHAYIVLAIENSFMTASKHHHHHHKDEL
modifications: amino acid sequence including a secretory sequence, a portion of collagen XVIII, a portion of human endostatin having a C67A mutation, and a peptide tag
notes: E3 extended by 17 amino acids from Collagen XVIII, S→Y, C67A, ASK, 6X His KDEL
Consider B2, for which the “bleomycin-induced pulmonary fibrosis, lung histology” value in data set [4] was “prevented”.

B3: E3_C67A-Fc_IgA2: SEQ ID NO: 26 (protein)
chain: MGKMASLFATFLVVLVSLSLASESSASYCETWRTEAPSATGQASSLLGGRLLGQSAASCHHAYIVLAIENSFMTVPCPVPPPPPCCHPRLSLHRPALEDLLLGSEANLTCTLTGLRDASGATFTWTPSSGKSAVQGPPERDLCGCYSVSSVLPGCAQPWNHGETFTCTAAHPELKTPLTANITKSGNTFRPEVHLLPPPSEELALNELVTLTCLARGFSPKDVLVRWLQGSQELPREKYLTWASRQEPSQGTTTFAVTSILRVAAEDWKKGDTFSCMVGHEALPLAFTQKTIDRMAGKPTHVNVSVVMAEVDGTCY
modifications: E3_C67A-Fc_IgA2 fusion
B3: the solubility entry in data set [3] is recorded as “insoluble”.

B4: E3_C67A-Fc_IgG3: SEQ ID NO: 23 (protein)
chain: MGKMASLFATFLVVLVSLSLASESSASYCETWRTEAPSATGQASSLLGGRLLGQSAASCHHAYIVLAIENSFMTELKTPLGDTTHTCPRCPEPKSCDTPPPCPRCPEPKSCDTPPPCPRCPEPKSCDTPPPCPRCPAPELLGGPSVFLFPPKPKDTLMISRTPEVTCVVVDVSHEDPEVQFKWYVDGVEVHNAKTKPREEQYNSTFRVVSVLTVLHQDWLNGKEYKCKVSNKALPAPIEKTISKTKGQPREPQVYTLPPSREEMTKNQVSLTCLVKGFYPSDIAVEWESSGQPENNYNTTPPMLDSDGSFFLYSKLTVDKSRWQQGNIFSCSVMHEALHNRFTQKSLSLSPGK
modifications: E3_C67A-Fc_IgG3 fusion
For the molecule B4, in data set [3], the solubility entry is “soluble”.

B5: E3_C67A-Fc_IgA1: SEQ ID NO: 25 (protein)
chain: MGKMASLFATFLVVLVSLSLASESSASYCETWRTEAPSATGQASSLLGGRLLGQSAASCHHAYIVLAIENSFMTVPCPVPSTPPTPSPSTPPTPSPSCCHPRLSLHRPALEDLLLGSEANLTCTLTGLRDASGVTFTWTPSSGKSAVQGPPERDLCGCYSVSSVLPGCAEPWNHGKTFTCTAAYPESKTPLTATLSKSGNTFRPEVHLLPPPSEELALNELVTLTCLARGFSPKDVLVRWLQGSQELPREKYLTWASRQEPSQGTTTFAVTSILRVAAEDWKKGDTFSCMVGHEALPLAFTQKTIDRLAGKPTHVNVSVVMAEVDGTCY
modifications: E3_C67A-Fc_IgA1 fusion
For B5, the solubility result in data set [3] was “insoluble”.
